Test results from article doi:10.1101/2024.10.23.619877.

Biological target: 20S proteasome (human housekeeping 20S core) (human) (UniProt P60900)
Test: AFM imaging with morphometric analysis of single particles

UniProt P60900, sequence (P60900 whole entry, looked up): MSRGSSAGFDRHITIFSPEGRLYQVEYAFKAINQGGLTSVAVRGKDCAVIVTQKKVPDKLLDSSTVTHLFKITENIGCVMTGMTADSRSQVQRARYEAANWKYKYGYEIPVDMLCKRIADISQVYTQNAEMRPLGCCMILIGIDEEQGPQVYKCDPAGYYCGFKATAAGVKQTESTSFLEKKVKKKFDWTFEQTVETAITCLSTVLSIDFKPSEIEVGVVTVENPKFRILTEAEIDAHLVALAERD

## 19S regulatory particle (complex)
  percent of particles that are 26S proteasomes (with 2 µM Aβ42 oligomers): 52.9%
  percent of particles that are 26S proteasomes (without Aβ): 75.8%
